The results in this text go back to patent US20030108958A1.

The experiment has as its target AK155 receptor complex (IL-20R1 and IL-10R2), endogenous on human cell lines (human) (UniProt Q9UHF4). Put plainly: cell-based or functional assay.

Chain of AK155 receptor complex (IL-20R1 and IL-10R2), endogenous on human cell lines (human) (Q9UHF4 30-553 V259I/L382F limits assumed, chain 1 of 2): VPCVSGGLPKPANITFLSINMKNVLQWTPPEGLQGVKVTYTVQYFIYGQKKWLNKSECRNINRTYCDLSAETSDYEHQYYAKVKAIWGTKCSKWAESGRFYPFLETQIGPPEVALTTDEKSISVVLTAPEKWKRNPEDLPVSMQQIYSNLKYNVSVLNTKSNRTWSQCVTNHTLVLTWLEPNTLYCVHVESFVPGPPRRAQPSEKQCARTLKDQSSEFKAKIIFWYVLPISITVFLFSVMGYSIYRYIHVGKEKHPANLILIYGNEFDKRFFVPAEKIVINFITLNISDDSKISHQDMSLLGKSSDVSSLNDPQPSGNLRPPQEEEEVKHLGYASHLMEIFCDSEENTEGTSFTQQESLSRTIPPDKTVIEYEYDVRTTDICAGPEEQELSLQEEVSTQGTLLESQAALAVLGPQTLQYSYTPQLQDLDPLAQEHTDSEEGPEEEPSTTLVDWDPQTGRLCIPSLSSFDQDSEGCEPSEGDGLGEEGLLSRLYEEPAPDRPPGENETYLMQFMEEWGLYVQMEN
Chain of AK155 receptor complex (IL-20R1 and IL-10R2), endogenous on human cell lines (human) (chain, as listed by the source limits assumed, chain 2 of 2): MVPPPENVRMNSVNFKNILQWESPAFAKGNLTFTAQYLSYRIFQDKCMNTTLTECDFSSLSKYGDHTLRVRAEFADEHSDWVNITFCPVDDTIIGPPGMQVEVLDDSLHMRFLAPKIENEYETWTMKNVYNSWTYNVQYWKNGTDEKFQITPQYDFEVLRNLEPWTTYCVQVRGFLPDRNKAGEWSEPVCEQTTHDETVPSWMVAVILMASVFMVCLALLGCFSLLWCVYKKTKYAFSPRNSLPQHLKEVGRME

With “AK155 (from UniProt Q9NPH9 22-171) (ligand)”, the IL-8 in supernatant of Colo-205 cells (ELISA), 24 h, with AK155 (without AK155: 552) is 670 pg/mL; the IL-8 in supernatant of Colo-205 cells (ELISA), 48 h, with AK155 (without AK155: 623) stood at 989 pg/mL; the IL-10 in supernatant of Colo-205 cells (ELISA), 24 h, with AK155 (without AK155: 61) is 112 pg/mL; the IL-10 in supernatant of Colo-205 cells (ELISA), 48 h, with AK155 (without AK155: 60) was found to be 94 pg/mL.
